Changes are numbered by the printed parent chain.
B1: His10-BTLA^ICD BTLA^FFFY, pre-phosphorylated (domain or fragment)
chain: DTAGREINLVDAHLKSEQTEASTRQNSQVLLSETGIFDNDPDLCFRMQEGSEVFSNPCLEENKPGIVFASLNHSVIGPNSRLARNVKEAPTEYASICVRS
modifications: pre-phosphorylated with Fyn; lone tyrosine (Y282) in the ITSM
B2: SNAP-SHP1-cSH2 (domain or fragment)
chain: WYHGHMSGGQAETLLQAKGEPWTFLVRESLSQPGDFVLSVLSDQPKAGPGSPLRVTHIKVMCEGGRYTVGGLETFDSLTDLVEHFKKTGIEEASGAFVYLRQPY
B3: His10-BTLA^ICD BTLA^FFYF, pre-phosphorylated (domain or fragment)
chain: B1 chain with F68Y, Y93F
modifications: pre-phosphorylated with Fyn; lone tyrosine (Y257) in the ITIM

Key:
SNAP-SHP2-cSH2 = assay: SPR
[1] = target: B3; assay: SPR

| Kd (SNAP-SHP2-cSH2) [µM] | Kd [1] [µM] | Binder |
| --- | --- | --- |
| 1.1 |  | B1 |
|  | 1.8 | B2 |
| 1.1 |  | B3 |
